A short description of this series: label from the status in PepcDB records.

Consider “MNTTKRILILLLLALITGCAMHTTRNPSFLEGKRLIAEGRLEEGLGKLEQAAREEPDDREVGATLARERDTIIGQILFEADNARLAGNLDQAEQNYQRVLNIRASSERAREGLDAVDLERRHIVLVNQAKEALAHGDVDGAEKIVRGVLADNPMQSEARQLIKALSEQIARAEMSELSLITEFSKPITMEFRDTSLKTMFELISRTAGINFVFDRNVQQEATASIFVRDNSIEDVLKLMLLTNQLAYKVLNSNTLLIYPDTPAKQKDYQELVVRSFHVANTDVKQMVAMIRGLVKARDIYVNEKLNLFVIRDTLEMIRLVERLVAINDFPDPEVMLDVVVLEVKRDSTLDLGPNMPTSVTFSAVPGIGTPAQAAADSVVKMSMIKNTGFEGLRSFTISNQARIDFGRTLTNADVLANPRIRVKSREKAKIHIGNKEPVFTVTNTANVGSAASATYIDVGLKFEVEPVVRTNNEVTLKALLEVSSNLGEKRSGSGENAATAIVIGTRTAETVLELRDGETQVLAGLIQDDLSRVRSGIAGLTDIPVLGDIFSKQVRKHNKTEIILLITPHIVRNVIQPNHFESEFYSGTASAAGKLPVTIRKTAPRSLAMESSNSASDGGYMSLGRARSAGLFGAAPDLFEEAVTQAREASPSLTLRVPESVAGGREFTATVRLVTQDPMLSGELNLTYDPDTLELVDGGEKSGMRSLKLGRDQSTGMTAVLRFKVISTNATSTEIALQNLQVRDETGQPVEVNLPPAASIRIQ”, for which the protein production result is given as “failed”.

For the sequence “MNTTLFRWPVRVYYEDTDAGGVVYHASYVAFYERARTEMLRHHHFSQQALMAERVAFVVRKMTVEYYAPARLDDMLEIQTEITSMRGTSLVFTQRIVNAENTLLNEAEVLVVCVDPLKMKPRALPKSIVAEFKQ”, the protein production result was “not failed”.

“MNVDFINPFLDSLLNVLKTMANMELKPGKPNLKKDNLAKGDVSGLIGMVGPQTKGSLSITFEETLILEIMNKMLGEKPESIDEEVTDLVGELTNMVTGGAKNLLSDKGYEFDMATPIVVSGKNHTIAHKSDGQKIIMPFSSIYGTAYIEICFEG”: the protein production entry was “not failed”.

Take “MNVLRPTLLTLACLLASPGFADDLPSLGDASSAIVSPQQEYQLGRAWLALLRSQVSQLNDPQLKDYVETSVYKLVETSQVNDRRLEFILINSPQLNAFAAPGGIIGVNGGLFLNAQTEGEYASVLAHELAHLSQRHFARGVEAQQRMQVPMMAALLAGIVIAAAGAGDAGIATIAGTQAAAIQEQRRFSRQNEQEADRIGILNLEKAGYDPRSMPTMFERLMRQYRFDAKPPEFLLTHPVTESRIADTRNRAEQARQGGTEDSLRYQLIRARVQLTYEESPGLAAKRFRAQLDENPKNDIARYGLAIAQIKGSQWNEARENLKPLLAKSPNDVTYNLAQIELDMANSRLPDAQTRVERMLNLYPGNYPLNQIRVDLLLKQNRPADAEKALEGLLKSRPDDPDVWYLVAETRGLSGNIIGLHQARAEYFALVGDYRQAIQQLDFAKRRAGSNFPLSSRIDARQREMMDQEQMVKDMMRLEHHHHHH”: the protein production result was “not failed”.

For “MNVMRHSWLAVAGIAGLLAFPPVDACTLWGAAGTASMEGSLLAKNRDWKPDHAQSLRLLHPEHGYAYLGLYADNGSEPGIKAGVNQKGLAVVAAEASSLPRALRADSARHGVLTRLLRDYGSLDEVASAADKLFAQARPVFLLLADAGGLMQVEIGQHGRYRLIRQQSGTLAHTNHYADTSLLDGAQTIGPSSQARLERIRFLLDQHPAHTLSEFERLSRDRHDGPDNSLWRSGREHTLAGWRIALPAGAPPRLQLTLANPGRAERDGDYALDSAFWAQPARTLLPLEHHHHHH”, the protein production result is “not failed”.

For the sequence “MNVSKILVSPTVTTNVLRIFAPRLPQIGASLLVQKKWALRSKKFYRFYSEKNSGEMPPKKEADSSGKASNKSTISSIDNSQPPPPSNTNDKTKQANVAVSHAMLATREQEANKDLTSPDAQAAFYKLLLQSNYPQYVVSRFETPGIASSPECMELYMEALQRIGRHSEADAVRQNLLTASSAGAVNPSLASSSSNQSGYHGNFPSMYSPLYGSRKEPLHVVVSESTFTVVSRWVKWLLVFGILTYSFSEGFKYITENTTLLKSSEVADKSVDVAKTNVKFDDVCGCDEARAELEEIVDFLKDPTKYESLGGKLPKGVLLTGPPGTGKTLLARATAGEAGVDFFFMSGSEFDEVYVGVGAKRIRDLFAQARSRAPAIIFIDELDAIGGKRNPKDQAYAKQTLNQLLVELDGFSQTSGIIIIGATNFPEALDKALTRPGRFDKVVNVDLPDVRGRADILKHHMKKITLADNVDPTIIARGTPGLSGAELANLVNQAAVYACQKNAVSVDMSHFEWAKDKILMGAERKTMVLTDAARKATAFHEAGHAIMAKYTNGATPLYKATILPRGRALGITFQLPEMDKVDITKRECQARLDVCMGGKIAEELIYGKDNTTSGCGSDLQSATGTARAMVTQYGMSDDVGPVNLSENWESWSNKIRDIADNEVIELLKDSEERARRLLTKKNVELHRLAQGLIEYETLDAHEIEQVCKGEKLDKLKTSTNTVVEGPDSDERKDIGDDKPKIPTMLNA”, the protein production result is recorded as “failed”.

On to “MNVTLGTGDGADFWVFGFGSLIWKPDIPFEECRDAFITGWRRRFWQHSTDHRGTESYPGRVATLVLAEQPGERCYGRAYRVDNEAAADVLAYLDEREKQGYSRLALPVYDARSAEQITKHALVYIAREDNPHFVRAADERQIPVLCRIIARARGPSGDNATYLFRLKESLDEIGVRDEHVDELVFGVRAELEALASACSESTPHGVAVAPTAASFDAVPASSDDLR”, for which the protein production result is “failed”.

For “MNYAEKKKNWIKLGIFALFAGGILAYIGISNADIHWGGFISMMIFFAFTYYLGAFYAAKKSNSFSDMIVAKRSMPFFVGMVTMAATWVGGGYINGTAESTYSDGLIWAQAPWGYALSLIIGGIFFARKMRRHQFMTIIDPLEQRFGKRMAGVLYIPALLGELFWSAAILTALGTTFGMILNIDFQTSIILSAMIAIAYTVAGGMWAVAFTDVFQMIVILLGLFLVVPFVLSNVGALDSVWANYRHDFGSSANLLPPLDGWKNPDWGNLFWNWWDNALLLIFGGIAWQVYFQRVLSAKSESAAMWQSIIAGVICIIAAIPCVIIGAAGNSTDWSLFGASAPDNPAMILPQTLAYLTPGIIAGLGLGAIAAAVMSSMDSSILSASSMAAWNIYRPLIKPKATQKQLQKVVKRSIILFGAGAAVIALNVKSVYTLWYLASDLVYCILFPQLTMALFYKRANLYGSIAGFAVAVILRLGGGEPAFGIPPLLPYPMIEDGTVLFPFRTLAAVTAFMTIFAVSELTQRKCPPKQLVLPQEKQKDDRAA”, the protein production result was “failed”.

Turning to “MNYKKHRGETLFKRWFLNNRFSIVLLNILLFFLIIWVFNKISFVLNPAWVFFSAILPPLLLALIQYYIMNPVVDWFEKKFRVPRVLTIIVLFLFVVIAMIWIINILVPIAQHQINSLVKNWPHIWNDAVNATQNALRDPRLHSVKGSIQGMIDDTQKTLFKSGQNTVNSTLGNISSAVSIITMIVMTLLTAPFILFFMLKDGHQLRPYITKFVPETWQQSFSKLLYDINYAVASYIRGQITVAFWVGVMFTIGYIIIGLPYGLALAILAGFMNLIPYFGTPLALIPVIVISIMTSGSMLVKVLIVFAIEQTIETRILSPLVMGNKMQMHPVTTILLLIGASSVWGLWGVIFGIPIYAVLKIIVSRVYNYYRRESDIFSNEDAASLTTGDADESKK”, the protein production result is “failed”.

Take “MNYLPMMIVFPLIMAIIMNLLHGKEKAVKYITFITAAILIILPFISQYGYYYFGGHGVVNGWVSGIAYLYNPAKQAIIVTLSLIASLVLITGMGEKLKNNMFVTLSLMGFASIAAIVLADDIFNLYVFFEIVSIVQAGLVFLSGTEEAYKAGLRYMIMGNVAAALMLLGIAFLLASTGTLNITDMKHYLLVDNPMIYGGLLLLIVGLAYGAGLPPFHNVKADLYARSKGFISAMLQTYSKFVLVGLMIIILKLFNGLDYFASAHAVLIALGVLAMVFGVVMALLQSDYKKLLAYHAISQGGYVATGLALGTPLGIVAGIFHAINHVIYKSALFLGAYIVSCKRGSNLHKLGGLLPLMPSVAFMVLCAKLAISGIPPFNGFQSKWMLAQAAMQVNMPEIAIIMIIVSIGTFVSMMKAFYLIYLKPVDEETLKEYQNKEVPKLAVFSLFVLTALCIIIGLYPDIVTNYLWDYAKELGVNYYLK”: the protein production entry is recorded as “failed”.

Regarding “MNYQDVLDFWFAPDHTNFWFAKDSLFDDEIRTQFSTVHQQATQAELWSWRQTVEGRLAEIIVLDQFSRNLYRDQAQAFAQDSMALALAQEAITQQLDAQLSPEQRSFLYMPFMHSESKLIHEFALKLFQKLGNEINLSFEKKHKVIIDQFGRYPHRNAILGRQSTPEELEFLTQPNSHF”, the protein production result is “failed”.

Consider “MNYQKMNYQKLGVDILALSGGKQNVSKLTHCATRLRFEFNDSHAVQAEAIAKLPGVISVVDRGGQFQVVIGNDVQITYRAILNEIGEMNGQRTSDKNKQQKKGGIFSQIISVISTTFTPVIPAITGAGMIKALLAILKLTGLISADSTTYRLLDTISDAAFFFLPVLLAYGASIKFACNPILAMTIAGALLHPNLAQLLASGGPISFIGIPVRLADYAGSVLPIILTVWIMSYIERFAEKISPSMITFFTKPMIVLLFTAPLALVVIGPFGIFLNDLVASGAAIIDGKASWLIPMLMGGLQPFLVITGTAWAMTPIATSQLTRNGFEMINGPGMLASNIAQGAATLCVAFKTKNKNLKQLASSAGFTALLGITEPSLYGVTLKLKKPLIAAMIGGGCAGIYAGLAGLVRYAFVSPGLAALPAFIGENPMNIVHALITCAIAIVVTFALTWIMGFDDPVDETDNAQTDSTQSDARQSAPAANTTQKSQATENHAEPQTILSPLSGKLVALSDINDDVFSQGLLGQGVAIIPDNGEVVAPVSGEIITFLESKHAVGIRTDSGLELLIHVGLDTVNLNGKHFTGYIKPGDRVTAGDRLISFDLHEITRLGYDPITPVVIINSDEYASVVCTVPQPIAPMDTIINVNA”, for which the protein production entry is listed as “failed”.

As to “MNYRLLVFDFDGTLADSEASIMGAMQLVAKEFGLSEVDCVKARPTIGLSLLRTIEIGLGLEAGDAAAAVELYRRYYKEIAFDSTCLFPGVKETQEQLRQNSLLAIASSKSRQGLLSRMRQFGIVDHFSFIAGAQDISGL”, the protein production result is “failed”.

Turning to “MPAFSLLPKPSALLPLLLAAAFLPPAFVHAEEEAAKDQPQAPVERPAVSERSQDEAKGLERQLPEDGQQILKAGDESFLTLWLPANTAEAEGVVILVPGDGESPDWPQAIGPLRRKLPDAGWQTLSLALPDPQSTAPVTRPAESAASASADKDASAADSASKPDVKGESGNAPAPESTAEAGSGEPAQSEDQAPPPAIDPVEQRKAHAERVMARLQASIDLALQHEPKSVVLLGHGTGAYWAARYLAEKEPAEIHNLLLVAAEVPRDFRPALEDMVPKLKLATGDFYYRDARADREAARLRMQAGKRQKHPAYVQIAMQALPADPKAEQEQLYRRIRGWLSLHLQADAQKPAE”, the protein production entry was “failed”.

With “MPAKTALIYSNDFSRFSYGDDHPFKIQRIILARELMGMLGLTELPGACIHDCPRADEASLLTFHSPDYLQRLREFSDSDEPRADFRYGLGDLDNPVFKGFYDWAILGVGGTMEAARLVTEEGYDIAFTMAGGWHHAHRSKASGFSYLNDAVIAINTLVAKGLRVAYLDIDAHHGDGVQEAFYDTDQVLTVSIHESGIYFFPGTGFEDEIGRGQGRGYSVNVPLVAHTDDALFMKAFDEVAYPLIAAYNPDVLVTQLGVDTFRTDPLTRLEITTHSYTYILRKLKALKIPWVAVGGGGYNMINVARGWTLAWGIMNGVELPPKLPAQFVDMIAPMGHPNRMLLDAMHWAEEDDRNRALDAVERSIAAIRETVFPVIIGNYAAAAGE”, the protein production result is “failed”.

As for “MPALDLIRPSVTAMRVIASVNAEFARELKLPPHIRSLGLISADSDDVTYIAADEATKQAMVEVVYGRSLYAGAAHGPSPTAGEVLIMLGGPNPAEVRAGLDAMVANIENGAAFQWANDAENTAFLAHVVSRTGSYLSSTAGITLGDPMAYLVAPPLEATYGIDAALKSADVQLVTYVPPPSETNYSAAFLTGSQAACKAACNAFTDAVLEIARNPIQRA”, the protein production entry was “not failed”.

Turning to “MPAPAATYERVVYKNPSEYHYMKVCLEFQDCGVGLNAAQFKQLLISAVKDLFGEVDAALPLDILTYEEKTLSAILRICSSGLVKLWSSLTLLGSYKGKKCAFRVIQVSPFLLALSGNSRELVLD”, the protein production entry is listed as “not failed”.

Values taken from a protein production outcome set (Wang et al. 2014).
